Experimental data reported in patent publication US12570750B2, “Antibodies that bind adenosine A2A receptors and methods of use thereof to treat cancer and neurological diseases” (Twist Bioscience Corporation, priority 2019, dated 2026).

Biological target: adenosine A2A receptor (Homo sapiens, UniProt P29274)
Assay: LANCE allosteric cAMP assay: titrated IgG, then fixed NECA concentration
Type: cell-based
Settings: Table 12
Experimental: A2A-1 and A2A-9 were assayed for allosteric modulation.
A2A-9 was assayed as described in Example 16.

Sequence of adenosine A2A receptor (P29274 whole entry): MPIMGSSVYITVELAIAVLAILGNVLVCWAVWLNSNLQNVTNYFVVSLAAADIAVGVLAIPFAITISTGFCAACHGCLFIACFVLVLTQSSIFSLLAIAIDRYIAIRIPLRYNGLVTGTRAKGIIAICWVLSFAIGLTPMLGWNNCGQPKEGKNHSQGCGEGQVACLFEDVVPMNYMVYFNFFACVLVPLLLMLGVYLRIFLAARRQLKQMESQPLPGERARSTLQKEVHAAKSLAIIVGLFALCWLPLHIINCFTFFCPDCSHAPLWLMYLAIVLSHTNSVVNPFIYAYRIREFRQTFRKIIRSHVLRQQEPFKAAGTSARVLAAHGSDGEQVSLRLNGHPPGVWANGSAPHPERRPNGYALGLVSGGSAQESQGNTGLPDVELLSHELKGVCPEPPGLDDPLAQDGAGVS

B1: A2A-9: A2AR variant immunoglobulin, CDRH1-3 SEQ ID NOs 14/103/192 (antibody, V domains shown)
VH: EVQLQQSGPGLVKPSQSLSLTCSVTGYSITSGYYWNWIRQFPGKKLEWMGYIRYDGSNNYNPSLKNRISITRDTSKNQFFLKLNSVTTDDTATYYCARVHHYYGSSYFDYWGQGTTLTVSS
VL: DIVMTQSQKFMSTSVGDRVSATCKASQNVGSSVAWFQQKPGQSPKALIYSTSYRYSGVPDRFTGSGSGTDFTLTISNVQSEDLAEYFCQQYNSYPLTFGAGTKLEIK
  Functional classification, Example 18: antagonist
